Results reported in publication PMC2706832.

Target: wild-type CCR1 expressed on HEK293 cells (human) (UniProt P32246)
Sequence (P32246 whole entry): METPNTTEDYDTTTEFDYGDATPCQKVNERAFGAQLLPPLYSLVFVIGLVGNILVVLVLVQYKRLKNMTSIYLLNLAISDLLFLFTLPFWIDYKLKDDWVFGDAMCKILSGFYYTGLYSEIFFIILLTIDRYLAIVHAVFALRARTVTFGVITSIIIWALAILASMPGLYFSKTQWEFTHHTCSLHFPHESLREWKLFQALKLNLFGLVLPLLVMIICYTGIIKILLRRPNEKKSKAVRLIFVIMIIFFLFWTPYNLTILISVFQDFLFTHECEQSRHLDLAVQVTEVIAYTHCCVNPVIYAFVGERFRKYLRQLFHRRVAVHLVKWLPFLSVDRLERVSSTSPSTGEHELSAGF

- EC50 for calcium flux in CCR1-transfected HEK293 cells: > 1000 nM
B1: CCL14 full length (1-74) (ligand)
chain: TKTESSSRGPYHPSECCFTYTTYKIPRQRIMDYYETNSQCSKPGIVFITKRGHSVCTNPSDKWVQDYIKDMKEN
